Results: PMC11534217, “Direct activation of HSF1 by macromolecular crowding and misfolded proteins”
One block for each binder: values may come before it.

Tests used:
[1] = biological target: HSF1 monomer (SEC-purified) (human (Homo sapiens), UniProt Q00613 1-529); test: fluorescence polarization; after heat shock (+HS); binding enhanced; FP: 30 nM DNA, 150 mM NaCl, 50 mM HEPES pH 7.2, 1 mM DTT, 0.05% Tween-20, 25 C; EMSA: 200 nM HSF1, 100 nM DNA, 25 mM HEPES pH 7.4, 150 mM NaCl, 10% glycerol, 3; conditions: protein: recombinant; tags: N-terminal His6-TEV, cleaved by TEV before assay; chain copies: 3; label: 5' FAM on printed strand; described as double-stranded
[2] = biological target: T1, Heat shock factor protein 1 (HSF1), purified recombinant (human), Q00613; test: SEC + native gel or EMSA; trimer fraction of purified HSF1 from the same SEC, then Blue native PAGE and western blot; conditions: remark: other sources report otherwise
T1 chain: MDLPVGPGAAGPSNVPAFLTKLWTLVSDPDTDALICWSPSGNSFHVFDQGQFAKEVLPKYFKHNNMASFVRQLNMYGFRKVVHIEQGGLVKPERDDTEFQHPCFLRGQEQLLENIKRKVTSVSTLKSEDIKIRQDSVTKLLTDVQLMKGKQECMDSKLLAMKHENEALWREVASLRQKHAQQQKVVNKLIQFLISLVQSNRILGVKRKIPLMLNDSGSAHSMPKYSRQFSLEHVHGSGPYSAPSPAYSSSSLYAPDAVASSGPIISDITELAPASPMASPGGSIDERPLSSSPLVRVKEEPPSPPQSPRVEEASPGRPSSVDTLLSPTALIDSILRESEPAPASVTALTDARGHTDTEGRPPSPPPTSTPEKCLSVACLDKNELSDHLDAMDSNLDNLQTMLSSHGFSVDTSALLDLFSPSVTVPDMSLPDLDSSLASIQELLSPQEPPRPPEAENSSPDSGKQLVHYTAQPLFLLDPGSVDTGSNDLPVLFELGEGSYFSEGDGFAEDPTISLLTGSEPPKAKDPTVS

[3] = biological target: T1, Heat shock factor protein 1 (HSF1), …; test: native gel or EMSA; Blue native PAGE and western blot of purified HSF1 monomer (5 μM) after mild heat (38°C, 0-600 s; or 37°C, 5 min) with or without BSA as crowder (1-50 mg/ml); conditions: remark: other sources report otherwise
GFP-HSF1 (human), Q00613 = biological target: T2, GFP-HSF1 (human), Q00613; test: native gel or EMSA; high resolution clear native electrophoresis (HR CNE) of lysates of H1299 cells with fluorescent HSF1 fusion, fluorescence scan; cells treated with sorbitol, 42°C heat shock, bortezomib or AUY-922; conditions: remark: other sources report otherwise
T2 chain: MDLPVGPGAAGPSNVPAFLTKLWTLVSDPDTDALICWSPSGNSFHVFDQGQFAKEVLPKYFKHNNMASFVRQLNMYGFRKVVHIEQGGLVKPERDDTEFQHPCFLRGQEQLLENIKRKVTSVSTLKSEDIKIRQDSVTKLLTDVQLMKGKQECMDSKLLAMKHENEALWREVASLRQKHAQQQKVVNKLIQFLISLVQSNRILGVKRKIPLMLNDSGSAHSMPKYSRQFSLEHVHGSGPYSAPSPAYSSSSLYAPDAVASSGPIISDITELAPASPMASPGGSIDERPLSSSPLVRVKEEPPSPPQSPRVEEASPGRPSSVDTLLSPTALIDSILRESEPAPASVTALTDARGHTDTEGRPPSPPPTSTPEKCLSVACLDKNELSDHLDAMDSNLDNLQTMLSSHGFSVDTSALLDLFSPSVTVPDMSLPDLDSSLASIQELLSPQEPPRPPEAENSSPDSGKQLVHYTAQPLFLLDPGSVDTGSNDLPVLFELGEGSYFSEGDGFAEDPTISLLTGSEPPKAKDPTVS

[4] = biological target: T3, HSF1, endogenous in H1299 cells (human (endogenous in H1299)), Q00613; test: cross-linking; 2 mM DSBU added to the lysate of H1299 cells for 30 minutes, SDS-PAGE, blot with anti-HSF1 c-5; cells treated with AUY-922 (0-200 nM, 2 h) after mTOR inhibitors BEZ-235 or rapamycin (100 nM, 8 h); conditions: remark: other sources report otherwise
T3 chain: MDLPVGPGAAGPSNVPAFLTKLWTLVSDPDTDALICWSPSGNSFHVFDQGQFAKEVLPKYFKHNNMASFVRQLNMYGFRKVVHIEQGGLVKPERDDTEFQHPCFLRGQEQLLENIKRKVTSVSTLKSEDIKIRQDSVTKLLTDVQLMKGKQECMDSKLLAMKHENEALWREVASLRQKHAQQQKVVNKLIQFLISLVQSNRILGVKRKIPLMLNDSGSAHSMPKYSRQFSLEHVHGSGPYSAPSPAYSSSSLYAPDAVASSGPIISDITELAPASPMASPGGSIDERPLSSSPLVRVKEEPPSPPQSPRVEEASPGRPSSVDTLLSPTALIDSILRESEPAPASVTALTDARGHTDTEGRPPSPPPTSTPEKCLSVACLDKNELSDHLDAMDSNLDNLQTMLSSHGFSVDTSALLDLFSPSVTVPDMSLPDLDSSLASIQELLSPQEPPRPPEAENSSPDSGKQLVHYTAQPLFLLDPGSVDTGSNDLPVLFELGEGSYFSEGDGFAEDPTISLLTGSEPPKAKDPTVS

[5] = biological target: T4, mCherry-HSF1 (human), Q00613; test: native gel or EMSA; high resolution clear native electrophoresis (HR CNE) of lysates of H1299 cells with fluorescent HSF1 fusion, fluorescence scan; cells treated with sorbitol, 42°C heat shock, bortezomib or AUY-922; conditions: remark: other sources report otherwise
T4 chain: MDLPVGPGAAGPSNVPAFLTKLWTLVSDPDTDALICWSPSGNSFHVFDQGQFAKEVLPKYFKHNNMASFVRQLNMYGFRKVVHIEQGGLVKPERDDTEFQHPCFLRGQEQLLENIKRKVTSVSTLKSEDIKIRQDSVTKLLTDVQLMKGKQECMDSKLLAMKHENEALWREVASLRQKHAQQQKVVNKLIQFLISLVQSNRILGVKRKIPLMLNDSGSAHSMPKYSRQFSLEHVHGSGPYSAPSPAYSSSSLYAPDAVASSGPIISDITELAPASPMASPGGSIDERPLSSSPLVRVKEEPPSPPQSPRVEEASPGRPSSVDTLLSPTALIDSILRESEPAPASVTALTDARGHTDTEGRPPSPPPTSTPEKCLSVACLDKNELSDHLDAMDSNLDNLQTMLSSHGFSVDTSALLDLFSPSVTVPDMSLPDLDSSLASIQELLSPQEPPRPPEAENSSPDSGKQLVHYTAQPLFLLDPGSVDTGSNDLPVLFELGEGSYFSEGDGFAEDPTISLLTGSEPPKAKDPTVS

stoichiometry N [2]: 3
stoichiometry N [3]: 3
B2: Heat shock factor protein 1 (HSF1), purified recombinant, Q00613-1 1-529 (natural protein)
chain: MDLPVGPGAAGPSNVPAFLTKLWTLVSDPDTDALICWSPSGNSFHVFDQGQFAKEVLPKYFKHNNMASFVRQLNMYGFRKVVHIEQGGLVKPERDDTEFQHPCFLRGQEQLLENIKRKVTSVSTLKSEDIKIRQDSVTKLLTDVQLMKGKQECMDSKLLAMKHENEALWREVASLRQKHAQQQKVVNKLIQFLISLVQSNRILGVKRKIPLMLNDSGSAHSMPKYSRQFSLEHVHGSGPYSAPSPAYSSSSLYAPDAVASSGPIISDITELAPASPMASPGGSIDERPLSSSPLVRVKEEPPSPPQSPRVEEASPGRPSSVDTLLSPTALIDSILRESEPAPASVTALTDARGHTDTEGRPPSPPPTSTPEKCLSVACLDKNELSDHLDAMDSNLDNLQTMLSSHGFSVDTSALLDLFSPSVTVPDMSLPDLDSSLASIQELLSPQEPPRPPEAENSSPDSGKQLVHYTAQPLFLLDPGSVDTGSNDLPVLFELGEGSYFSEGDGFAEDPTISLLTGSEPPKAKDPTVS

stoichiometry N [5]: 3
B5: mCherry-HSF1, Q00613-1 1-529 (natural protein)
chain: MDLPVGPGAAGPSNVPAFLTKLWTLVSDPDTDALICWSPSGNSFHVFDQGQFAKEVLPKYFKHNNMASFVRQLNMYGFRKVVHIEQGGLVKPERDDTEFQHPCFLRGQEQLLENIKRKVTSVSTLKSEDIKIRQDSVTKLLTDVQLMKGKQECMDSKLLAMKHENEALWREVASLRQKHAQQQKVVNKLIQFLISLVQSNRILGVKRKIPLMLNDSGSAHSMPKYSRQFSLEHVHGSGPYSAPSPAYSSSSLYAPDAVASSGPIISDITELAPASPMASPGGSIDERPLSSSPLVRVKEEPPSPPQSPRVEEASPGRPSSVDTLLSPTALIDSILRESEPAPASVTALTDARGHTDTEGRPPSPPPTSTPEKCLSVACLDKNELSDHLDAMDSNLDNLQTMLSSHGFSVDTSALLDLFSPSVTVPDMSLPDLDSSLASIQELLSPQEPPRPPEAENSSPDSGKQLVHYTAQPLFLLDPGSVDTGSNDLPVLFELGEGSYFSEGDGFAEDPTISLLTGSEPPKAKDPTVS

Second part, the binder before the results:

B1: FAM-HSE (dsDNA)
DNA 1: CCCCTTCCCGAATATTCCCCC
DNA 2: GGGGGAATATTCGGGAAGGGG
binding result [1]: binds

B3: GFP-HSF1, Q00613 1-529 (natural protein)
chain: MDLPVGPGAAGPSNVPAFLTKLWTLVSDPDTDALICWSPSGNSFHVFDQGQFAKEVLPKYFKHNNMASFVRQLNMYGFRKVVHIEQGGLVKPERDDTEFQHPCFLRGQEQLLENIKRKVTSVSTLKSEDIKIRQDSVTKLLTDVQLMKGKQECMDSKLLAMKHENEALWREVASLRQKHAQQQKVVNKLIQFLISLVQSNRILGVKRKIPLMLNDSGSAHSMPKYSRQFSLEHVHGSGPYSAPSPAYSSSSLYAPDAVASSGPIISDITELAPASPMASPGGSIDERPLSSSPLVRVKEEPPSPPQSPRVEEASPGRPSSVDTLLSPTALIDSILRESEPAPASVTALTDARGHTDTEGRPPSPPPTSTPEKCLSVACLDKNELSDHLDAMDSNLDNLQTMLSSHGFSVDTSALLDLFSPSVTVPDMSLPDLDSSLASIQELLSPQEPPRPPEAENSSPDSGKQLVHYTAQPLFLLDPGSVDTGSNDLPVLFELGEGSYFSEGDGFAEDPTISLLTGSEPPKAKDPTVS
stoichiometry N (GFP-HSF1 (human), Q00613): 3

B4: HSF1, endogenous in H1299 cells, Q00613 1-529 (natural protein)
chain: MDLPVGPGAAGPSNVPAFLTKLWTLVSDPDTDALICWSPSGNSFHVFDQGQFAKEVLPKYFKHNNMASFVRQLNMYGFRKVVHIEQGGLVKPERDDTEFQHPCFLRGQEQLLENIKRKVTSVSTLKSEDIKIRQDSVTKLLTDVQLMKGKQECMDSKLLAMKHENEALWREVASLRQKHAQQQKVVNKLIQFLISLVQSNRILGVKRKIPLMLNDSGSAHSMPKYSRQFSLEHVHGSGPYSAPSPAYSSSSLYAPDAVASSGPIISDITELAPASPMASPGGSIDERPLSSSPLVRVKEEPPSPPQSPRVEEASPGRPSSVDTLLSPTALIDSILRESEPAPASVTALTDARGHTDTEGRPPSPPPTSTPEKCLSVACLDKNELSDHLDAMDSNLDNLQTMLSSHGFSVDTSALLDLFSPSVTVPDMSLPDLDSSLASIQELLSPQEPPRPPEAENSSPDSGKQLVHYTAQPLFLLDPGSVDTGSNDLPVLFELGEGSYFSEGDGFAEDPTISLLTGSEPPKAKDPTVS
stoichiometry N [4]: 3
